Experimental data reported in patent publication US20260001928A1 (CORTERIA PHARMACEUTICALS, priority 2022, published 2026).
*1 amine or outer side, *2 acyl side, *3 side chain or, on linkers, in order; H or OH if unused. Where no end group is shown, it is not given here. Side-chain parts run from the residue outwards. [ ]: non-standard residue; d: D form. The star is where a group is joined. C18 diacid = O=C(O)CCCCCCCCCCCCCCCCC(=O)*; C16 diacid = O=C(O)CCCCCCCCCCCCCCC(=O)*; γGlu = O=C(O)[C@H](CCC(=O)[*:2])N[*:1]; NMeI = CC[C@H](C)[C@H](NC)C(=O)O; αMeL = CC(C)C[C@](C)(N)C(=O)O; Api = NC1(C(=O)O)CCNCC1; AEEA = NCCOCCOCC(=O)O; Aib = CC(C)(N)C(=O)O

T1: CRF1R receptor (UniProt P34998 24-415, limits assumed)
T1 sequence (looked up): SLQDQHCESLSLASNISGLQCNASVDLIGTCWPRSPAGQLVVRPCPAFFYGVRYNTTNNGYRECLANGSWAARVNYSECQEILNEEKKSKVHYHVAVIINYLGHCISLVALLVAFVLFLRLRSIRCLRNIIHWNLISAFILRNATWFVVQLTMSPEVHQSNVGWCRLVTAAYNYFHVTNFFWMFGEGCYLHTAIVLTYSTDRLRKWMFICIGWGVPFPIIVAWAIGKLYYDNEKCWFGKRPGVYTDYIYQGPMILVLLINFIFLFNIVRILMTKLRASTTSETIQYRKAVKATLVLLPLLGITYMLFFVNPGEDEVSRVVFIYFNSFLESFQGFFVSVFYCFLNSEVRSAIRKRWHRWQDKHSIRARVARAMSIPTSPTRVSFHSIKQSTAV


Experiments:
CRF1R receptor = biological target: T1, CRF1R receptor; experiment: cell-based or functional assay
[1] = biological target: human corticotropin-releasing factor 2a (CRF2a receptor) (human), Q13324; experiment: cell-based or functional assay
Sequence of human corticotropin-releasing factor 2a (CRF2a receptor) (human), Q13324 (Q13324 20-411): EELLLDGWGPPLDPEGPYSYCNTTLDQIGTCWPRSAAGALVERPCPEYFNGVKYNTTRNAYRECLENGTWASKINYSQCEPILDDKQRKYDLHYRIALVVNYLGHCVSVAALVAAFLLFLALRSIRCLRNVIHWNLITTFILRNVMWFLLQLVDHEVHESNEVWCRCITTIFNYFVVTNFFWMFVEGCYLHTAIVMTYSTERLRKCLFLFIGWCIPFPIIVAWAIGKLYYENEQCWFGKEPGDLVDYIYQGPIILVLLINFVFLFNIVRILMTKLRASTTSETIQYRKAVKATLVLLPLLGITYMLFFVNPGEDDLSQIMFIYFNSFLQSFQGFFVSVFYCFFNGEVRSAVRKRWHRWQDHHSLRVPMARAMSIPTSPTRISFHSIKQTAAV

Row | Binder | Emax (% I) (CRF1R receptor) [%] | EC50 [nM] (cAMP) [1]
1 | Ac-VLSLD[dV]PIKLK([AEEA-AEEA-γGlu-C18 diacid])KILLEQEKQKKQREQAETN[Aib]QILAQV-NH2 (SMILES CC[C@H](C)[C@H](NC(=O)[C@H](CCC(N)=O)NC(=O)C(C)(C)NC(=O)[C@H](CC(N)=O)NC(=O)[C@@H](NC(=O)[C@H](CCC(=O)O)NC(=O)[C@H](C)NC(=O)[C@H](CCC(N)=O)NC(=O)[C@H](CCC(=O)O)NC(=O)[C@H](CCCNC(=N)N)NC(=O)[C@H](CCC(N)=O)NC(=O)[C@H](CCCCN)NC(=O)[C@H](CCCCN)NC(=O)[C@H](CCC(N)=O)NC(=O)[C@H](CCCCN)NC(=O)[C@H](CCC(=O)O)NC(=O)[C@H](CCC(N)=O)NC(=O)[C@H](CCC(=O)O)NC(=O)[C@H](CC(C)C)NC(=O)[C@H](CC(C)C)NC(=O)[C@@H](NC(=O)[C@H](CCCCN)NC(=O)[C@H](CCCCNC(=O)COCCOCCNC(=O)COCCOCCNC(=O)CC[C@H](NC(=O)CCCCCCCCCCCCCCCCC(=O)O)C(=O)O)NC(=O)[C@H](CC(C)C)NC(=O)[C@H](CCCCN)NC(=O)[C@@H](NC(=O)[C@@H]1CCCN1C(=O)[C@H](NC(=O)[C@H](CC(=O)O)NC(=O)[C@H](CC(C)C)NC(=O)[C@H](CO)NC(=O)[C@H](CC(C)C)NC(=O)[C@@H](NC(C)=O)C(C)C)C(C)C)[C@@H](C)CC)[C@@H](C)CC)[C@@H](C)O)C(=O)N[C@@H](CC(C)C)C(=O)N[C@@H](C)C(=O)N[C@@H](CCC(N)=O)C(=O)N[C@H](C(N)=O)C(C)C) [SEQ ID NO 99] | 0 | 6.07
2 | [NMeI]VLSLD[dV]PIKLK([γGlu-C16 diacid])KILLEQEKQKKQREQAETNAQILAQV-NH2 (N-terminus assumed; SMILES CC[C@H](C)[C@H](NC)C(=O)N[C@H](C(=O)N[C@@H](CC(C)C)C(=O)N[C@@H](CO)C(=O)N[C@@H](CC(C)C)C(=O)N[C@@H](CC(=O)O)C(=O)N[C@@H](C(=O)N1CCC[C@H]1C(=O)N[C@H](C(=O)N[C@@H](CCCCN)C(=O)N[C@@H](CC(C)C)C(=O)N[C@@H](CCCCNC(=O)CC[C@H](NC(=O)CCCCCCCCCCCCCCC(=O)O)C(=O)O)C(=O)N[C@@H](CCCCN)C(=O)N[C@H](C(=O)N[C@@H](CC(C)C)C(=O)N[C@@H](CC(C)C)C(=O)N[C@@H](CCC(=O)O)C(=O)N[C@@H](CCC(N)=O)C(=O)N[C@@H](CCC(=O)O)C(=O)N[C@@H](CCCCN)C(=O)N[C@@H](CCC(N)=O)C(=O)N[C@@H](CCCCN)C(=O)N[C@@H](CCCCN)C(=O)N[C@@H](CCC(N)=O)C(=O)N[C@@H](CCCNC(=N)N)C(=O)N[C@@H](CCC(=O)O)C(=O)N[C@@H](CCC(N)=O)C(=O)N[C@@H](C)C(=O)N[C@@H](CCC(=O)O)C(=O)N[C@H](C(=O)N[C@@H](CC(N)=O)C(=O)N[C@@H](C)C(=O)N[C@@H](CCC(N)=O)C(=O)N[C@H](C(=O)N[C@@H](CC(C)C)C(=O)N[C@@H](C)C(=O)N[C@@H](CCC(N)=O)C(=O)N[C@H](C(N)=O)C(C)C)[C@@H](C)CC)[C@@H](C)O)[C@@H](C)CC)[C@@H](C)CC)C(C)C)C(C)C) [SEQ ID NO 68] | 8 | 0.05
3 | Ac-IVLSLD[dV]PIKLK([AEEA-AEEA-γGlu-C18 diacid])KILLEQEKQKKQREQAETN[Aib]QILAQV-NH2 (SMILES CC[C@H](C)[C@H](NC(C)=O)C(=O)N[C@H](C(=O)N[C@@H](CC(C)C)C(=O)N[C@@H](CO)C(=O)N[C@@H](CC(C)C)C(=O)N[C@@H](CC(=O)O)C(=O)N[C@@H](C(=O)N1CCC[C@H]1C(=O)N[C@H](C(=O)N[C@@H](CCCCN)C(=O)N[C@@H](CC(C)C)C(=O)N[C@@H](CCCCNC(=O)COCCOCCNC(=O)COCCOCCNC(=O)CC[C@H](NC(=O)CCCCCCCCCCCCCCCCC(=O)O)C(=O)O)C(=O)N[C@@H](CCCCN)C(=O)N[C@H](C(=O)N[C@@H](CC(C)C)C(=O)N[C@@H](CC(C)C)C(=O)N[C@@H](CCC(=O)O)C(=O)N[C@@H](CCC(N)=O)C(=O)N[C@@H](CCC(=O)O)C(=O)N[C@@H](CCCCN)C(=O)N[C@@H](CCC(N)=O)C(=O)N[C@@H](CCCCN)C(=O)N[C@@H](CCCCN)C(=O)N[C@@H](CCC(N)=O)C(=O)N[C@@H](CCCNC(=N)N)C(=O)N[C@@H](CCC(=O)O)C(=O)N[C@@H](CCC(N)=O)C(=O)N[C@@H](C)C(=O)N[C@@H](CCC(=O)O)C(=O)N[C@H](C(=O)N[C@@H](CC(N)=O)C(=O)NC(C)(C)C(=O)N[C@@H](CCC(N)=O)C(=O)N[C@H](C(=O)N[C@@H](CC(C)C)C(=O)N[C@@H](C)C(=O)N[C@@H](CCC(N)=O)C(=O)N[C@H](C(N)=O)C(C)C)[C@@H](C)CC)[C@@H](C)O)[C@@H](C)CC)[C@@H](C)CC)C(C)C)C(C)C) [SEQ ID NO 98] | -2 | 0.55
4 | Ac-VLSLD[dV]PIKLK([AEEA-AEEA-γGlu-C18 diacid])KILLEQEKQKKQREQAETNAQILAQV-NH2 (SMILES CC[C@H](C)[C@H](NC(=O)[C@H](CCC(N)=O)NC(=O)[C@H](C)NC(=O)[C@H](CC(N)=O)NC(=O)[C@@H](NC(=O)[C@H](CCC(=O)O)NC(=O)[C@H](C)NC(=O)[C@H](CCC(N)=O)NC(=O)[C@H](CCC(=O)O)NC(=O)[C@H](CCCNC(=N)N)NC(=O)[C@H](CCC(N)=O)NC(=O)[C@H](CCCCN)NC(=O)[C@H](CCCCN)NC(=O)[C@H](CCC(N)=O)NC(=O)[C@H](CCCCN)NC(=O)[C@H](CCC(=O)O)NC(=O)[C@H](CCC(N)=O)NC(=O)[C@H](CCC(=O)O)NC(=O)[C@H](CC(C)C)NC(=O)[C@H](CC(C)C)NC(=O)[C@@H](NC(=O)[C@H](CCCCN)NC(=O)[C@H](CCCCNC(=O)COCCOCCNC(=O)COCCOCCNC(=O)CC[C@H](NC(=O)CCCCCCCCCCCCCCCCC(=O)O)C(=O)O)NC(=O)[C@H](CC(C)C)NC(=O)[C@H](CCCCN)NC(=O)[C@@H](NC(=O)[C@@H]1CCCN1C(=O)[C@H](NC(=O)[C@H](CC(=O)O)NC(=O)[C@H](CC(C)C)NC(=O)[C@H](CO)NC(=O)[C@H](CC(C)C)NC(=O)[C@@H](NC(C)=O)C(C)C)C(C)C)[C@@H](C)CC)[C@@H](C)CC)[C@@H](C)O)C(=O)N[C@@H](CC(C)C)C(=O)N[C@@H](C)C(=O)N[C@@H](CCC(N)=O)C(=O)N[C@H](C(N)=O)C(C)C) [SEQ ID NO 101] | 0 | 1.74
5 | Ac-IVLSLD[dV]PIKLK([AEEA-AEEA-γGlu-C18 diacid])KILLEQEKQKKQREQAETN[Api]QILAQV-NH2 (SMILES CC[C@H](C)[C@H](NC(C)=O)C(=O)N[C@H](C(=O)N[C@@H](CC(C)C)C(=O)N[C@@H](CO)C(=O)N[C@@H](CC(C)C)C(=O)N[C@@H](CC(=O)O)C(=O)N[C@@H](C(=O)N1CCC[C@H]1C(=O)N[C@H](C(=O)N[C@@H](CCCCN)C(=O)N[C@@H](CC(C)C)C(=O)N[C@@H](CCCCNC(=O)COCCOCCNC(=O)COCCOCCNC(=O)CC[C@H](NC(=O)CCCCCCCCCCCCCCCCC(=O)O)C(=O)O)C(=O)N[C@@H](CCCCN)C(=O)N[C@H](C(=O)N[C@@H](CC(C)C)C(=O)N[C@@H](CC(C)C)C(=O)N[C@@H](CCC(=O)O)C(=O)N[C@@H](CCC(N)=O)C(=O)N[C@@H](CCC(=O)O)C(=O)N[C@@H](CCCCN)C(=O)N[C@@H](CCC(N)=O)C(=O)N[C@@H](CCCCN)C(=O)N[C@@H](CCCCN)C(=O)N[C@@H](CCC(N)=O)C(=O)N[C@@H](CCCNC(=N)N)C(=O)N[C@@H](CCC(=O)O)C(=O)N[C@@H](CCC(N)=O)C(=O)N[C@@H](C)C(=O)N[C@@H](CCC(=O)O)C(=O)N[C@H](C(=O)N[C@@H](CC(N)=O)C(=O)NC1(C(=O)N[C@@H](CCC(N)=O)C(=O)N[C@H](C(=O)N[C@@H](CC(C)C)C(=O)N[C@@H](C)C(=O)N[C@@H](CCC(N)=O)C(=O)N[C@H](C(N)=O)C(C)C)[C@@H](C)CC)CCNCC1)[C@@H](C)O)[C@@H](C)CC)[C@@H](C)CC)C(C)C)C(C)C) [SEQ ID NO 109] | 4 | 1
6 | Ac-IVLSLD[dV]PIK[αMeL]K([AEEA-AEEA-γGlu-C18 diacid])KILLEQEKQKKQREQAETNAQILAQV-NH2 (SMILES CC[C@H](C)[C@H](NC(C)=O)C(=O)N[C@H](C(=O)N[C@@H](CC(C)C)C(=O)N[C@@H](CO)C(=O)N[C@@H](CC(C)C)C(=O)N[C@@H](CC(=O)O)C(=O)N[C@@H](C(=O)N1CCC[C@H]1C(=O)N[C@H](C(=O)N[C@@H](CCCCN)C(=O)N[C@@](C)(CC(C)C)C(=O)N[C@@H](CCCCNC(=O)COCCOCCNC(=O)COCCOCCNC(=O)CC[C@H](NC(=O)CCCCCCCCCCCCCCCCC(=O)O)C(=O)O)C(=O)N[C@@H](CCCCN)C(=O)N[C@H](C(=O)N[C@@H](CC(C)C)C(=O)N[C@@H](CC(C)C)C(=O)N[C@@H](CCC(=O)O)C(=O)N[C@@H](CCC(N)=O)C(=O)N[C@@H](CCC(=O)O)C(=O)N[C@@H](CCCCN)C(=O)N[C@@H](CCC(N)=O)C(=O)N[C@@H](CCCCN)C(=O)N[C@@H](CCCCN)C(=O)N[C@@H](CCC(N)=O)C(=O)N[C@@H](CCCNC(=N)N)C(=O)N[C@@H](CCC(=O)O)C(=O)N[C@@H](CCC(N)=O)C(=O)N[C@@H](C)C(=O)N[C@@H](CCC(=O)O)C(=O)N[C@H](C(=O)N[C@@H](CC(N)=O)C(=O)N[C@@H](C)C(=O)N[C@@H](CCC(N)=O)C(=O)N[C@H](C(=O)N[C@@H](CC(C)C)C(=O)N[C@@H](C)C(=O)N[C@@H](CCC(N)=O)C(=O)N[C@H](C(N)=O)C(C)C)[C@@H](C)CC)[C@@H](C)O)[C@@H](C)CC)[C@@H](C)CC)C(C)C)C(C)C) [SEQ ID NO 112] | 3 | 0.28
